In patent US20250320277A1 (ALBERT EINSTEIN COLLEGE OF MEDICINE, published 2025):

B1: DC2.M301 (antibody, V domains shown)
VH: QVQLVQSGAEVKKPGAAVKVSCKASGYTFSGYYIHWVRQAPGQGLEWMGWINPNSGGTDFAQKFQGRVTMTRDTSISTAYMELSRLRSDDTAVYLCSRDPGYTYGYPLGYWGQGTLVTVSS
VL: ETTLTQSPGTLSLSPGERATLSCRASQSVSSSYLAWYQQKPGQAPRLLIYGTSSRATGIPDRFSGRGSGTDFTLTISRLEPEDFAVYYCQQYGNSPPYTFGQGTKVDIK
B2: DC2.M17 (antibody, V domains shown)
VH: EVQLVESGSELKKPGASVRVSCEASGYSFTSHTIVWMRQAPGQGLECLGWINTNTGNPTYAQGFTGRFVFSLDTSVSTAYLQISSLKAADTAVYYCARVLKCLGGSASCSGHGYYDYGMAVWGQGTTVTVSS
VL: DIVLTQSPLSLPVTPGEPASISCRSSQSLLHSNGYNFLHWYLQKPGQSPQLLIYLGSIRASGVPDRFSGSGSGTDFTLKISRVEAEDVGVYYCMQALQTFMYTFGQGTKLEIK
B3: DC2.M287 (antibody, V domains shown)
VH: EVQLVESGGGLVQPGGSLRLSCAASGFTFRDYWMIWVRQTPGKGLEWVANINRNGNEKHYVDSLKGRFTISRDNTKNSLYLQVNGLSAEDTAVYYCVRDSSPSFGPGNYYDAFDIWGQGTTVTVSS
VL: DIRVTQSPSSLSASVGDRVTITCRASQDIRNEVGWYQQKPGQAPKVLIFAASTLQSGVPSRFRGSGSGTVFTLTISSLQPEDLATYYCLQDFNYPRTFGQGTKVDIK

Legend:
MAYV p62-E1 [1] = molecular target: T1, MAYV p62-E1 (Mayaro virus (BeAr 20290)); experiment: BLI, […], global 1:1 fit; […]
T1 construct: extracellular domain

MAYV p62-E1 [2] = molecular target: T1, MAYV p62-E1; experiment: ELISA, plate-coated p62-E1, eight-point mAb dilution
MAYV p62-E1 [3] = molecular target: T1, MAYV p62-E1

Row | Binder | Kd (MAYV p62-E1 [1]) [nM] | EC50 (MAYV p62-E1 [2]) [nM] | koff (MAYV p62-E1 [3]) [s⁻¹] | kon (MAYV p62-E1 [3]) [M⁻¹ s⁻¹]
1 | B1 | 15 | 4.6 | 0.0047 | 300000
2 | B2 |  | 1.9 |  | 
3 | B3 |  | 220 |  | 
